Results as given in a protein production outcome set (Wang et al. 2014).

Test: label from the status in PepcDB records

Row | Sequence | protein production
1 | MPKMIMVNKKASESQVMELEKRNYNNPVVLCGFAGSTPTGVLAASYIVETLGMHQVAHLISQHIPPVAVFVGGKLRHPFRIYANNSNTVLVAMCEVPISSAHIYEISNTLMNWIDQVGASEIVIMEGSPANGIPEERPVFAVAEKPKLDKFKKAGIQPADSAIIAGMGGGILNECLVRKITGLSFITPTSVDIPDPGAVLSIIEAINKAYNLKIKTDLLEEQVKALDEQIKKIEEQYKELQEKQKEPQSMYG | not failed
2 | MPKNDLLLRSLRGEPIGRFPVWLMRQAGRYMPEYRKIRNRVKNFLELCKNVDLATEISLLPLKILGVDAIIIFSDILVPLEPLGVKVEFVEGEGPKLSWSGKVSDLKKYDPSQNAYVYEIIKRVKEAQDEVPVIGFAGAPFTLLSYLIEGGASKDFKSTKLFMWENPKEYKRLMDILTETVLAYLKEQIKAGADVVQIFDSWVNNLSLEDYGEYVYPYVNYLISELKDFSDTPVIYFFRGSSSFIDLAVDYRADALSVDWSVDIPELFKIYDKGFQGNLEPAVLYASEEVIEEKTLGLLRRIPVKTRYVFNLGHGLAPDMELEKVKYLVDLVKSFPLT | not failed
3 | MPKQTGNARNPFVLLALFILVCSGGCATYPISHDKAVPVARGALFEYPYFHDQVTGIAVSGQGRIFVNFPRWDKDPLYSVAEVLPDGSLRPYPDHGWNRWGADETAHPEAHFICVQSVFVDHSDFLWILDPASPAFNGVVPGGAKLVKVNLKTDQVERVIPFAPSAAPHESYLNDVRIDPEGNFAFITDSGKGAIVVVDLESGKARRLLSGHPSTKAEPGYVPVIEGKELRNEDGTVPKIHADGIALDSRGEYLYYHALVGRTLYRIRTSFLKDPSLPEKDLENHVERIAETGAADGMLMDAQDNLYLTALEENAVKRYRPSEPTLNTIIQGGLHWPDSLAISPDNYLYVTDSQINLAPRFNHGKDLRIIPYKFFKTWLMPFSHDGLLPP | failed
4 | MPKRRGHGEGTVYQRPDGRWTAQITVGIDHEGKQRRLTLYGKSKKEVLEKLTQALYQQQNGGFIEPSKITVEQWLNRWLTDYAKPHLRQSTWESYETVLRLHVIPTLGSIPLKKLQPADIQRLYASKLESGLSPTRVRYIHVVLHEAMSQARESGLLLQNPTEAAKPPRHPKKKVQPLNPEQVKRFLETAKQDPLYPAFLLALGTGLRRGEILGLRWQDLDLQKGILQVRQSLIRTREGLKFEEPKTEKSRRQIPLPPSVVAALKRHKAWVNQNKLILGPDYEDHDLVFPVENGRPRDPKGFAEYFNRLLDKAGLPHIRLHDLRHTHATLLLLEGVHPKVVQERLGHSTVSITLDIYSHILPGLQEKAAERIDGLLQPKENPSPKEGTIK | failed
5 | MPKSKEMEEEMKENSQDKNFMYKLAEFIVDKRNLFFLIYIIALVFCIFSRNWVKVENDVTKYLPDSTETRQGLTVMNDQFVTYGTAQVLLANISYDRAQEAADMIEDINGVTSVTFDNTEDHYKGTSALLDVTFDGEEEDQISIDAMNEIKDKLTGYDVYYSTSVANDDSANLESEMQVVTAIAAVIIVVVLLLTSKSYAEVPVLLITFIAAALLNMGTNFLLGTISFISNSVTIVLQLALAIDYAIILCHRYTEERENLPAREATITALSKAIPEISSSSLTTVSGLLALAFMQFKIGEDLAVVLIKAIILSLISVFTLMPGLIMVFSKWMDKTVHKNLIPSISAVGKFAIKTKYIIPPIFAAVIIVACVFANMCPYCFSTGSTSTPRKSESTIAQEKIDSTFGSRNMIALVVPAGNYEAEKNLLADLDACDEVKSTQGLANTEAMDGYMLTDSLTPREFSELVGLDYEVAQLLYSAYAINQENYGEVINSSSKYSVPLIDMFEFLLDEIDKGYVTLEGDLKDQMDDLSGQLDKALLQLKTDDYSRLVVYLNLPEEGDETFAFLDRVHEMMAKYYTDNYYVVGNSTSDYDLSSSFSRDNLVISILSALFVIIILLFTFKSAGLPVLLILVIQGSIWINFSFPYLMDSPLYFLGYLVVNSIQMGANIDYAIVISSRYDDLKKQLPIKEAIIETLNQAFPTIITSGSILAAAGILISFLSTNGVISAIGTCLGRGTIISIILVMGVLPQILYLGDVIIEKTRFSINTDNLIQNTGGTMVINGRMRGYVSGIIDAEIHGVIKGEVKGQIDVNNIDVIKKEEPEDGGDGNEEA | failed
6 | MPKSPHKLFKANSFWKENNLILREIKHFRKIAILAVIFSFLAASFEGVSIGFLLSFLQKLTSPNDPIQTGISWVDMILAADAWPIPPIYRISLLILLSTWMRATFNYFGGVYTESAQLNLADRLHKQIFEQLQALRLSYFAQTRSGELINTITTEIERIKQGFSGLAFVLTRIMTVCVYFVVMFSISWQLSIISVLIFLLLAVGLSTLNKRVRETSFGISHANAQFTAVAVEFINGIRTIQAFGTQEFERQRFYKASTNQLNAAIKVVLAWTLVKPIAEGIATTVLISLIVISFATFTLPVASLLTFFFVLVRVIPNIQDINGTVAFLSTLQGSSENIKNILQTNNKPYLKNGKLHFQGLKRSIDLVSVDFGYTADNLVLNNITLTIERGKTTALVGASGAGKTTLADLIPRFYDPTEGQILVDGLDVQYFEINSLRRKMAVVSQDTFIFNTSIRDNIAYGTSGASEAEIREVARLANALQFIEEMPEGFDTKLGDRGVRLSGGQRQRIAIARALLRDPEILILDEATSALDSVSERLIQESIEKLSVGRTVIAIAHRLSTIAKADKVVVMEQGRIVEQGNYQELLEQRGKLWKYHQMQHESGQTNS | failed
7 | MPKTLLIPGLDGSPAAHWQQWWALRDPDALLLDLSDVSRPVPAVWEIEVAGAILQHPGAILVGHSLGAILIARLLAKWPHLKVGGAILVAPAEPRHSDRTESFGPIFEESLGVPAYVVSSRNDPWMSFTQAERLARAWRADVVDLGFAGHINVDSGFGPWPGGVVLRDELARRPVP | failed
8 | MPLELVVIHSYKSSDMKPYLLSAFAAILSTSAMAYDVKSGGKTSVKKDGANAYSLPATNLPMSKRLDFSVGNSFFRNPWVQAPATTDARDGLGPLFNTNGCQNCHIKDGRGHPPEKDDIHAVSMLVRLSIPAMTPKQKKAYIMDGGIPEPTYGGQLQDFALQDQTPEGKIAITYTDVPVEFKDGSKVTLRKPTLKITDLGYGDMHPDTQFSARVAPPMIGLGLLESIPDETLLKWADENDSDSDGISGKVNKVWDIEKGDFSLGRFGWKAGQPTLMQQNAAAFNGDVGLTSHLFPNENCTAKQSLCEELPNGGKPEVSQNILDFVEFYSQHLAVPIRRNVNDPDVQLGQKIFAASGCESCHKTSVKTTKRADRPALSEQLIHPYTDLLLHDMGEGLADHRPEYLANGREWRTPPLWGIGYTEEVNGHTYFLHDGRARNLMEAVLWHGGEAEQAKQNVLSLNQKERDALIAFLNSL | failed
9 | MPLFSQHTARFSPDVPLEGTSSRELLKRYQPLETLATGGFGSIEICRDTHLRRRVAIKRIPLINGAGMPASDIMDVLREAHTAAMLQHPNIVQVIDFTHDTAYAYLVMEYVDGMSLAEFLHRVDGHSLTFDEAAAIADALGQALTFAHSNGVLHLDIKPANVLIDHSGNVKLTDFGMARLSSAGGFGGSRGGTIGYMPPEQLDIETGTVDERADVFALACVIYEGLCGSAPFMAATPADSLGHIIGGATYPSELIPHFPPGAESALMSALSPMPQDRPNSIEAFCDQLLAGLGSVREGRRSLEQMVGELSDDEQELDDIEPSHYEDDAIEVDPALGWAGTRWSHARDYTMRTISALTCGTFSFLLMQTAGVAALPGLVIAAIAIGAAAGLAPQIGSAISAVGFLVLMANATMQAQGILSMLPVAVIFAAAMSGWWIAWGRTETAASATLTCALALGCLTGNTFLAAGVAAGVASFWLGPASAAAATGMGALFARLATVALSAGGVLGLGNVAAALGDPLLWAAFVLVAATAAASSALLNVHAKRANQGSNLAAIAAIAVTGIGCAAASCLAHHMEIASLAAAVIAKAAVAGILSSIIVGICLYLLGYQRTYTESDLS | failed
10 | MPLLTIGDQFPAYQLTALIGGDLSKVDAKQPGDYFTTITSDEHPGKWRVVFFWPKDFTFVCPTEIAAFSKLNDEFEDRDAQILGVSIDSEFAHFQWRAQHNDLKTLPFPMLSDIKRELSQAAGVLNADGVADRVTFIVDPNNEIQFVSATAGSVGRNVDEVLRVLDALQSDELCACNWRKGDPTLDAGELLKASA | not failed
11 | MPLPKSLKYGDTIGIYSPSSPVTYTSPKRFERAKSYLLQKGFHILEGSLTGRYDYYRSGSIQERAKELNALIRNPNVSCIMSTIGGMNSNSLLPYIDYDAFQNNPKIMIGYSDATALLLGIYAKTGIPTFYGPALVPSFGEFEPFVDDTYKYFLETLLHDQALPYNIKQPLFWSDEFINWEEKTKEKELRPNNWISVTNGQATGRVIGGNLNTIQGIWGSPYMPCIQEGDILFIEDSSKDAATIERSFSFLKINGVFDKVSGIILGKHEQFDDCGTNRKPYEILLEVLQNQRIPLLADFDCCHTHPMITMPIGVQVKMDATNKTIHILEKWKI | not failed
